Measurements: patent US20200055941A1 (MILTENYI BIOTEC, published 2020)

T1: Recombinant Human Fc gamma RIIb/CD32b (human, UniProt P31994 46-217)
T1 construct: also called FcγRIIb; CD32b/c
T1 sequence (looked up): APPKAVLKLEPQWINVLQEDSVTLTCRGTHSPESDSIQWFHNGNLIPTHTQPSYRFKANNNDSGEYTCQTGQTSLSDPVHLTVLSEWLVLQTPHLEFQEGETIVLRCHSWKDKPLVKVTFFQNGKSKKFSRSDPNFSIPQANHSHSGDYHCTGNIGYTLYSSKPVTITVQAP


Tests used:
[1] = target: T1, Recombinant Human Fc gamma RIIb/CD32b; assay: ELISA, plates coated with recombinant CD32b/c, anti-human kappa-HRP
Procedure: To examine more precisely the CD32b/c binding of MB101, the wt IgG₄ and the two single mutation variants, linear dilutions of the mAbs were incubated with ELISA plates previously coated with recombinant CD32b/c. FcR-bound anti-BDCA2 Ab were probed with anti-human kappa-HRP and TMB-substrate.
(§1) ELISA plates were coated with Fc gamma receptors I, IIa, IIb, IIIa and IIIb with 5 μg/mL each in coating buffer overnight at 4° C. Coated plates were washed 3-fold with 1×PBS 0.05% Tween 20 and blocked with 5% BSA in 1×PBS. Antibodies were applied to ELISA plates with 50 μL/well at serial 2-fold dilution of antibody solution and incubated at room temperature for 1 h. As blank controls, respective antibody concentrations were also applied to wells lacking coated Fc gamma receptors, in order to subtract unspecific binding from resulting signals. After washing (see above), the detection antibody anti-human kappa-HRP (FE 110316.07) 1:4000 in 1×PBS was applied with 50 μL/well and incubated again at RT for 1 h. After additional washing (see above), for assay development 50 μL/well TMB (CH111027.37) were applied and stopped after approx. 5 minutes with 50 μL/well 10% H₂SO₄. The developed plate was then analyzed via ELISA reader at 450 nm wavelength.

[2] = target: T1, Recombinant Human Fc gamma RIIb/CD32b; assay: ELISA, plate-bound recombinant receptor, anti-human kappa-HRP
Procedure: as §1

[3] = target: T2, Recombinant Human Fc gamma RIIIb/CD16b (human, UniProt O75015 17-200); assay: as above
T2 construct: also called Fcγ RIIIb/c; CD16b/c
T2 sequence (O75015 17-200 limits assumed): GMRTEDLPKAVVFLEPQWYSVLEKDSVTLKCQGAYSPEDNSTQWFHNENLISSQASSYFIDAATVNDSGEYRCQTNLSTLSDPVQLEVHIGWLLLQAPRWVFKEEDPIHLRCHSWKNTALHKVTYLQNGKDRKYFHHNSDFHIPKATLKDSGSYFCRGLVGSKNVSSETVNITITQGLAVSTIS
Procedure: as §1

Row | binding result [1] | binding result [2] | binding result [3] | Binder
1 | binds |  |  | aCD303-hIgG4-WT (antibody, MB101 (anti-CD303) expressed as a wild type IgG4; also called wt IgG4; wild type IgG4 antibody (aCD303-hIgG4)) heavy: not shown light: DIQMTQSPSSVSASVGDRVTITCRASQEISGYLSWYQQKPGKAIKRLIYAASTLDSGVPSRFSGSRSGTDFTLTISSLQSEDFATYYCLQYASYPPTFGGGTKLEIKGTVAAPSVFIFPPSDEQLKSGTASVVCLLNNFYPREAKVQWKVDNALQSGNSQESVTEQDSKDSTYSLSSTLTLSKADYEKHKVYACEVTHQGLSSPVTKSFNRGEC
2 |  | binds | no binding | MB101 (aCD303-hIgG4-S241P/R409K) (antibody, Humanized IgG4 against BDCA-2 (CD303), made in CHO DG44 cells; also called MB101.10; anti-CD303 IgG4 S241P/R409K) heavy: not shown light: DIQMTQSPSSVSASVGDRVTITCRASQEISGYLSWYQQKPGKAIKRLIYAASTLDSGVPSRFSGSRSGTDFTLTISSLQSEDFATYYCLQYASYPPTFGGGTKLEIKGTVAAPSVFIFPPSDEQLKSGTASVVCLLNNFYPREAKVQWKVDNALQSGNSQESVTEQDSKDSTYSLSSTLTLSKADYEKHKVYACEVTHQGLSSPVTKSFNRGEC
3 | binds |  |  | Pool 6 (aCD303-hIgG4-R409K) (antibody, Single mutation variant of MB101; also called anti-CD303 IgG4 R409K; IgG4 variant R409K) heavy: QVTLKESGPTLVKPTQTLTLTCTFSGFSLSTSGMGVGWIRQPPGKALEWLAHIWWEDDKYYNPSLKSRLTITKDTSKNQVVLTMTNMDPVDTATYYCTRNWDYYTMDYWGQGTTVTVSSASTKGPSVFPLAPCSRSTSESTAALGCLVKDYFPEPVTVSWNSGALTSGVHTFPAVLQSSGLYSLSSVVTVPSSSLGTKTYTCNVDHKPSNTKVDKRVESKYGPPCPSCPAPEFLGGPSVFLFPPKPKDTLMISRTPEVTCVVVDVSQEDPEVQFNWYVDGVEVHNAKTKPREEQFNSTYRVVSVLTVLHQDWLNGKEYKCKVSNKGLPSSIEKTISKAKGQPREPQVYTLPPSQEEMTKNQVSLTCLVKGFYPSDIAVEWESNGQPENNYKTTPPVLDSDGSFFLYSKLTVDKSRWQEGNVFSCSVMHEALHNHYTQKSLSLSLGK light: DIQMTQSPSSVSASVGDRVTITCRASQEISGYLSWYQQKPGKAIKRLIYAASTLDSGVPSRFSGSRSGTDFTLTISSLQSEDFATYYCLQYASYPPTFGGGTKLEIKGTVAAPSVFIFPPSDEQLKSGTASVVCLLNNFYPREAKVQWKVDNALQSGNSQESVTEQDSKDSTYSLSSTLTLSKADYEKHKVYACEVTHQGLSSPVTKSFNRGEC
